These results are taken from paper PMC6506550 (Nature Communications, 2019).

Common to all, as to experiment: flow cytometry on cells
The target in test [1] is full-length wild-type RSV F on the cell surface (respiratory syncytial virus (strain not stated)) (UniProt P03420).
For test [2], the target named is T1, full-length RSV F with the DS-Cav1 stabilizing mutations, on the cell surface (Respiratory syncytial virus, strain not …, UniProt P03420, S155C | S290C | S190F | V207L).
T1 construct: source: FreeStyle 293-F, cotransfected with furin, on the cell surface
Particulars: one partner purified.

Test [3] concerns the target T2, RSV F variant in which the cytoplasmic tail was replaced with a Foldon trimerization motif, on the cell … (Respiratory syncytial virus, strain not …, UniProt P03420, stabilised).
T2 construct: source: FreeStyle 293-F or HeLa cells, cotransfected with furin, on the cell surface; not shown: Foldon trimerization motif, C-terminal, kept
Particulars: one partner purified.

For test [4], the target named is T3, full-length wild-type RSV F on the cell surface (Respiratory syncytial virus, …, UniProt P03420).
T3 construct: also called full-length wild-type F; full-length RSV F; source: FreeStyle 293-F or HeLa cells, cotransfected with furin, on the cell surface
Particulars: one partner purified.

Test [5] addresses T4, full-length RSV F with the PR-DM stabilizing mutations, on the cell surface (Respiratory syncytial virus, strain not …, UniProt P03420, N67I | S215P).
T4 construct: source: FreeStyle 293-F, cotransfected with furin, on the cell surface
Particulars: one partner purified.

Molecule motavizumab Fab showed a percent of CF-647-labeled CR9501 IgG binding blocked in test [1] of less than 20%.

B1: CR9501 IgG (antibody, V domains shown)
VH: QVQLVQSGPGLVKPSQTLALTCTVSGASINSDNYYWTWIRQRPGGGLEWIGHISYTGNTYYTPSLKSRLSMSLETSQSQFSLRLTSVTAADSAVYFCAACGAYVLISNCGWFDSWGQGTQVTVSS
VL: EIVMTQSPSSLSASIGDRVTITCQASQDISTYLNWYQQKPGQAPRLLIYGASNLETGVPSRFTGSGYGTDFSVTISSLQPEDIATYYCQQYQYLPYTFAPGTKVEIK
notes: also called CF-647-labeled CR9501 IgG
On to B1, for which the binding result in test [2], in test [3], in test [4] and in test [5] was “binds” in each case.

B2: CR9501 Fab (Fab, V domains shown)
VH: QVQLVQSGPGLVKPSQTLALTCTVSGASINSDNYYWTWIRQRPGGGLEWIGHISYTGNTYYTPSLKSRLSMSLETSQSQFSLRLTSVTAADSAVYFCAACGAYVLISNCGWFDSWGQGTQVTVSS
VL: EIVMTQSPSSLSASIGDRVTITCQASQDISTYLNWYQQKPGQAPRLLIYGASNLETGVPSRFTGSGYGTDFSVTISSLQPEDIATYYCQQYQYLPYTFAPGTKVEIK
Take B2: in test [3], the binding result was “binds”.
